Experimental data published in patent US12637662B2, “Cells, islets, and organoids that evade immune detection and autoimmunity, methods of production and use thereof” (SALK INSTITUTE FOR BIOLOGICAL STUDIES, priority 2018, dated 2026).
Entries after “also recorded” stand apart in the source; their conditions may differ.

What was measured:
Type in all cases: cell-based, human
[1] = system: HILO transcriptome; assay: Bulk RNA-Seq transcriptional changes in HILOs; settings: WNT4 100 ng/ml for days 26-33
Experimental: Total RNA was isolated from cell pellets treated with RNAlater (Invitrogen) using the RNeasy micro kit (Qiagen) and treated with DNaseI (Qiagen) for 30 minutes at room temperature. Sequencing libraries were prepared from 100-500 ng total RNA using the TruSeq RNA Sample Preparation Kit v2 (Illumina) according to the manufacturer's protocol. Briefly, mRNA was purified, fragmented, and used for first- and second-strand cDNA synthesis followed by adenylation of 3′ ends. Samples were ligated to unique adapters and PCR amplified. Libraries were then validated using the 2100 BioAnalyzer (Agilent), normalized and pooled for sequencing.
RNA-Seq libraries prepared from 3 biological replicates for each experimental condition were sequenced on the Illumina HiSeq 2500 using bar-coded multiplexing and a 100 bp read length. […] This yielded a median of 29.9M usable reads per sample. Short read sequences were mapped to a UCSC hg19 reference sequence using the RNA-Seq aligner STAR (A. Dobin et al., 2013, Bioinformatics, 29:15-21). […] Transcript expression was calculated as gene-level relative abundance in fragments per kilobase of exon model per million (fpkm) mapped fragments and employed correction for transcript abundance bias (A. Roberts et al., 2011, Bioinformatics, 27:2325-2329). […] Scale of heatmaps was determined by Z-score (FIG. 2A, FIG. 3D and FIG. 3G).

[2] = system: ERRγ (ESRRG), mitochondrial and insulin gene expression; assay: Quantitative RT-PCR gene expression in hiPSC-derived islet organoids/HILOs; settings: hiPSC-derived islet organoids, MCS or HILOs
Experimental: hiPSCs were cultured in matrigel-coated plates. Single cell suspensions were prepared using Accutase, washed in PBS, and collected by centrifugation (1000-1300 rpm for 5 min). Cells were re-suspended with 3D Kelco Gel Stem TeSR™ Base Medium in the presence of the ROCK inhibitor (10 μM Y-27632, StemCell) for 5 to 7 days until spheroids reached 50-100 μm diameter. The medium was then replaced with 0.015% Kelco gel containing 0.3% methylcellulose and supplemented with 100 ng/ml human Activin A (R&D Systems), 3 μM CHIR99021 (Axon or Selleckchem) in differentiation medium (S1) for 1 day, and then 100 ng/ml human Activin in differentiation medium (S1) for another 2 days (Stage 1, Definitive Endoderm). Subsequently, the medium was replaced with differentiation medium (S2) with 50 ng/ml FGF7 (R&D Systems) for 2 days, differentiation medium (S3) with 50 ng/ml FGF7, 0.25 μM SANT-1 (Sigma), 1 μM Retinoic Acid (Sigma), 100 nM LDN193189, 10 μM Alk5 inhibitor II and 200 nM of the ß-Amyloid Precursor Protein modulator TPB for 3 days, then 50 ng/ml FGF7, 0.25 μM SANT-1 (Sigma), 1 μM Retinoic Acid (Sigma), 100 nM LDN193189, 10 μM Alk5 inhibitor II and 100 nM of the ß-Amyloid Precursor Protein modulator TPB for 2 days. Subsequently the medium was replaced with differentiation medium (S4) with 0.25 μM SANT-1, 50 nM retinoic acid, 100 nM LDN193189, 10 μM Alk5 inhibitor II, 1 μM T3 for 3 days. Subsequently, the medium was replaced with differentiation medium (S5) with 100 nM LDN193189, 100 nM […] inhibitor XX (GSiXX, Millipore), 10 μM Alk5 inhibitor IL, 1 μM T3 for 7 days. Subsequently, the medium was replaced with differentiation media (S5) with 10 μM Trolox (Calbiochem), 2 μM R428 (Selleckchem), 1 mM N-acetyl cysteine, 10 μM Alk5 inhibitor II, 1 μM T3 for an additional 7 to 20 days. […]
Total RNA was extracted using TRIzol reagent (Invitrogen) and RNeasy KIT (Qiagen). […] Real time quantitative RT-PCR (qPCR) was performed using SYBR Green (Bio-Rad).

[3] = system: insulin-expressing cells of HILOs; assay: Mitochondrial content (MitoTracker) and insulin-GFP by flow cytometry
Source text: FIGS. 8A-8H provide images, graphs, a schematic and a diagram showing results related to WNT4 mediated insulin-GFP expression and WNT4-driven metabolic maturation. FIG. 8A presents representative images of mitochondrial content, indicated by MitoTracker (red) staining, in PBS and WNT4 treated HILOs (scale bar, 100 μm). FIG. 8B presents graphs of flow cytometry quantification of insulin expression (GFP) and mitochondrial content in HILOs treated with recombinant human WNT4 (rhWNT4), WNT5A (rhWNT5A), or conditioned medium (CM) from control or WNT5A overexpressing fibroblasts (n=3). Error bars represent SEM. *p<0.05. FIG. 8C presents a gene ontology of transcriptional changes induced by WNT4 treatment (100 ng/ml WNT4 from day26 to day33) in HILOs. […] Error bars represent SEM. *p<0.05. FIG. 8E presents a Venn diagram showing overlap between WNT4-induced increases in chromatin accessibility in GFP^+ cells and increases in HILO gene expression (upper panel), and gene ontology pathways enriched in the intersection gene set. […] For FIGS. 8G and 8H, postnatal islets (day P11-14) from WT and β cell specific ERRγKO mice were cultured with or without rhWNT4 (100 ng/ml) for >5 days.

B1: WNT4: recombinant human Wnt4 protein (R&D Systems), non-canonical WNT maturation factor (protein, UniProt P56705 23-351, looked up)
Protein Wnt-4: SNWLYLAKLSSVGSISEEETCEKLKGLIQRQVQMCKRNLEVMDSVRRGAQLAIEECQYQFRNRRWNCSTLDSLPVFGKVVTQGTREAAFVYAISSAGVAFAVTRACSSGELEKCGCDRTVHGVSPQGFQWSGCSDNIAYGVAFSQSFVDVRERSKGASSSRALMNLHNNEAGRKAILTHMRVECKCHGVSGSCEVKTCWRAVPPFRQVGHALKEKFDGATEVEPRRVGSSRALVPRNAQFKPHTDEDLVYLEPSPDFCEQDMRSGVLGTRGRTCNKTSKAIDGCELLCCGRGFHTAQVELAERCSCKFHWCCFVKCRQCQRLVELHTCR
- number of genes with decreased expression [1]: 1354 genes
- number of genes with increased expression [1]: 1581 genes
- expression of ERRγ (ESRRG) and mitochondrial genes [2]: dose-dependently increased
- expression of ERRγ (ESRRG) and mitochondrial genes ([2]; listed as rhWNT4): induced
- proportion of insulin expressing cells ([3]; GFP sorting, HILOs with and without WNT treatment): not affected
- mitochondrial content / number ([3]; MitoTracker, HILOs / insulin-expressing cells): increased mitochondrial number; also recorded: increased the mitochondrial content
